Laboratory results published in patent US20140271478A1 (University of California, published 2014).

B1: 11E8Mut94 scFv (scFv, V domains shown, part only)
VH: EVQLQQSGPELMKTGASVKISCKATGYTFSSYWIEWVKQRPGHGLEWIGDILPGSGTTNYNEKFEGRAAITADTSSNTSYMQLSSLTSEDSAVYYCARWGWDSYWGQGTLVTVSS
VL: DIKMTQTPSSLSASLGDRVTISCSASQGISNYLNWYQQKPDGTVKLLIYYTSSLHSGVPSRFSGSGSGTDYSLTISNLEPEDIATYYCQQYSNLPYTFGGGTKLEIKR
modifications: linker not given; order not stated
B2: 14E5Mut68 scFv (scFv, V domains shown, part only)
VH: EVQLQQSGAELMKPGASVKISCKATGYTFSTYWIEWIKQRPGHGLEWIGDILPGSGTTNYNEKFKGRATVTADRSSNTAYMQLSSLTSEDSAVYYCARWGWDSYWGQGTLVTVSS
VL: DIKMTQSPSSLSASLGDRVTISCSASQGISNYLNWYQQKPDGTVKLLIYYTSSLHSGVPSRFSGSGSGTDYSLTISNLEPEDIATYYCQQYSELPYTFGGGTKLEIKR
modifications: linker not given; order not stated
B3: 14E5Mut54 scFv (scFv, V domains shown, part only)
VH: EVQLQQSGAELMKPGASVKISCKATGYTFSTNWIEWIKQRPGHGLEWIGHILPGSVITNYNEKFKGKAAITADTSSNTSYMQLSSLTSEDSAVYYCARWGWDSYWGQGTLVTVSS
VL: DIVMTQTPSSLSASLGDRVTIRCSASQGISNYLNWYQQKPDGTVKLLIYYTSSLHSGVPSRFSGSGSGTDYSLTISNLEPEDIATYYCQQYSNLPYTFGGGTKLEIKR
modifications: linker not given; order not stated
B4: 11E8Mut39 scFv (scFv, V domains shown, part only)
VH: EVQLQQSGPELMKTGASVKISCKATGYTFSTYWIEWVKQRPGHGLEWIGHTLPGSGTTNYNEKFKGRATITADRPSNTSYMQLSSLTYGDSAVFYCATWGWDTYWDHGTSVTVSS
VL: DIEMTQSPSSLSASLGDRVTISCSTSQDVSSYLNWYQQKPDGTVTLLIYYASNLHSGVPSRFSGSGSGTDYSLAISNLEPEDIATYYCQQYSNLPYTFGGGTKLEIKA
modifications: linker not given; order not stated
B5: 14E5 scFv (scFv, V domains shown)
VH: EVQLQQSGAELMKPGASVKISCKATGYTFSTYWIEWIKQRPGHGLEWIGHILPGSVITNYNEKFKGKAAITADTSSNTSYMQLSSLTSEDSAVYYCARWGWDSYWGQGTLVTVSS
VL: DIEMTQSPSSLSASLGDRVTISCSTSQDISSSLNWYQQKPDGTVTLLIYYTSNLHSGVPSRFSGSGSGTDYSLTISNLEPEDIATYYCQQYSKLPYTFGGGTKLEIK
B6: 11E8Mut28 scFv (scFv, V domains shown)
VH: EVQLQQSGPELMKTGASVKISCKATGYTFSSYWIEWVKQRPGHGLEWIGDILPGSGTTNYNEKFKGKAAITADTSSNTSYLQLSSLTSEDSAVYYCARWGWDSYWGQGTLVTVSS
VL: DIVMTQSPSSLSASLGDRVTISCSASQGISNYLNWYQQKPDGTVKLLIYYTSSLHSGVPSRFSGSGSGTDYSLTISNLEPEDIATYYCQQFSNLPYTFGGGTKLEIK
B7: 14E5Mut42 scFv (scFv, V domains shown)
VH: EVPLQQSGAELMKPGASVKISCKATGYTFSTYWIEWIKQRPGHGLEWIGHILPGSVITNYNEKFKGKAAITADTSSNTSYMQLSSLTSEDSAVYYCARWGWDSYWGQGTLVTVSS
VL: DIVMTQTPSSLSASLGDRVTISCSASQGISNYLNWYQQKPDGTVKLLIYYTSSLHSGVPSRFSGSGSGTDYSLTISNLEPEDIATYYCQQYSDLPYTFGGGTKLEIK
B8: 14E5Mut95 scFv (scFv, V domains shown)
VH: EVQLQQTGAELMKPGASVKISCKATGYTFSTYWIEWIKQRPGHGLEWIGHILPGSVITNYNEKFKGKAVITADTSSNTSYMQLSSLTSEDSAVYYCARWGWDSYWGQGTLVTVSS
VL: DIEMTQSPSSLSASLGDRVTISCSASQGISNYLNWYQQKPDGTVKLLIYYTSSLHSGVPSRFSGSGSGTDYSLTISNLEPEDIATYYCQQYSDLPYTFGGGTKLEIK
B9: 14E5Mut11 scFv (scFv, V domains shown)
VH: EVQLQQSGAELMKPGASVKISCKATGYTFSTNWIEWIKQRPGHGLEWIGHILPGSVITNYNEKFKGKAAITADTSSNTSYMQLSSLTSEDSAVYYCARWGWDSYWGQGTLVTVSS
VL: DILMTQSPSSLSASLGDRVTISCSASQGISKYLNWYQQKPDGTVKLLIYYTSSLHSGVPSRFSGSGSGTDYSLTISNLEPEDIATYYCQQYSNLPYTFGGGTKLEIK
B10: 14E5Mut83 scFv (scFv, V domains shown)
VH: EVQLQQSGAVLMKPGASVKISCKATGYTFSTHWIEWIKQRPGHGLEWIGHILPGSVITNYNEKFKGKAAITADTSSNTSYMQLSSLTSEDSAVYYCARWGWDSYWGQGTLVTVSS
VL: DILMTQSPSSLSASLGDRVTISCSASQGISNYLNWYQQKPDGTVKLLIYYTSSLHSGVPSRFSGSGSGTDYSLTISNLEPEDIATYYCQQYSDLPYTFGGGTKLEIK
B11: 11E8 scFv (scFv, V domains shown)
VH: EVQLQQSGPELMKTGASVKISCKATGYTFSSYWIEWVKQRPGHGLEWIGDILPGSGTTNYNEKFKGRATVTADRSSNTAYMQLSSLTYGDSAVYYCATWGWDTYWDQGTSVTVSS
VL: DIVMTQSPSSLSASLGDRVTISCSASQGISNYLNWYQQKPDGTVKLLIYYTSSLHSGVPSRFSGSGSGTDYSLTISNLEPEDIATYYCQQYSNLPYTFGGGTKLEIK
B12: 4F1 scFv (scFv, V domains shown)
VH: QVQLQQSGAELVRPGTSVKVSCKASGYAFTNYLIEWVKQRPGQGLEWIGVINPGTGGTNYNKKFKVKATLTADKSSSTAYMQLGGLTFDDSAVYFCAREGNARTYYYAMDYWGQGTSVTVSS
VL: DIEMTQTPASLSASVGETVTITCRASENIYSYLVWYQQKQGKSPQVLVYNAKTLAEGVPSRFSGSGSGTQFSLKINSLQPEDFGSYYCQHHNGTPYTFGGGTKLEIK
B13: 6B9 scFv (scFv, V domains shown)
VH: QVQLQQSGAELVRPGTSVKVSCKASGYAFTDYLIEWVKQRPGQGLEWIGVINPETGGTNYNAKFKGKATLTADKSSSSAYMQLSSLTSGDSAVYFCAREAGNYIYAMDYWGQGTSVTVSS
VL: DIQMTQSPASLSASVGETVTITCRASVNIYSYLVWYQQKQGKSPQLLVHNAKTLAEGVPSRFSGSGSGTQFSLKINSLQPEDFGSYYCQHHHGTPYTFGGGTKLEIK
B14: 6B9Mut1 scFv (scFv, V domains shown)
VH: QVQLQQSGAELVRPGTSVKVSCKASGYAFTDYLIEWVKQRPGQGLEWIGVINPETGGTNYNAKFRGKATLTADKSSSSAYMQLSSLTSGDSAVYFCAREAGNYIYAMDYWGQGTSVTVSS
VL: DIVMTQSPASLSASVGETVTITCRASVNIYSYLVWYQQKQGKSPQLLVHNAKTLAEGVPSRFSGSGSGTQFSLKINSLQPEDFGSYYCQHHHGTPYTFGGGTKLEIK
B15: 14E5Mut65 scFv (scFv, V domains shown)
VH: QVQLQQSGAELMKPGASVKISCKATGYSFSTNWIEWIKQRPGHGLEWIGHILPGSVITNYNEKFKGKAAITADTSSNTSYMQLSSLTSDDSAVYYCARWGWDSYWGQGTLVTVSS
VL: DIKMTQSPSSLSASLGDRVTISCSASQGISNYLNWYQQKPDGTVKLLIYYTSSLHSGVPSRFSGSGSGTDYSLTISNLEPEDIATYYCQQFSNLPYTFGGGTKLEIK

molecular target: integrin αβ8 (αvβ8), form in the assay not stated (UniProt P06756); assay: affinity determination of scFv; method and antigen form not stated
Sequence (chain, as listed by the source, chain 1 of 2): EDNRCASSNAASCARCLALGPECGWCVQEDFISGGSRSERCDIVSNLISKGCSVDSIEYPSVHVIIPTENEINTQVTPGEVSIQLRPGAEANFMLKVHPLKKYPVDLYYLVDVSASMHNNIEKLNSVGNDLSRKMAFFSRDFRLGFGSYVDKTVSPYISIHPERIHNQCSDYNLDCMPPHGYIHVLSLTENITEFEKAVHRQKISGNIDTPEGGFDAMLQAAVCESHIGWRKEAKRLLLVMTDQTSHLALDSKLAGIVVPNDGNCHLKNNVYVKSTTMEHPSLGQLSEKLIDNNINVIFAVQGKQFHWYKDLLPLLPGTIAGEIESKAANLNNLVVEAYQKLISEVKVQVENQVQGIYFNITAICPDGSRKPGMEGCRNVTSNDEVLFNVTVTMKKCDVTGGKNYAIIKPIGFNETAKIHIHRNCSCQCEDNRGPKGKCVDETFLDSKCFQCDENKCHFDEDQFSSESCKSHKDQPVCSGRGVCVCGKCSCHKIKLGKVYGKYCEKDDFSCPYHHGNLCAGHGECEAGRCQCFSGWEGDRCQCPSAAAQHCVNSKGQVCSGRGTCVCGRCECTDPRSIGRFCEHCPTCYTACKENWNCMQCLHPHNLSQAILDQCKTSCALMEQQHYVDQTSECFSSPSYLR
Sequence (P06756 31-992, chain 2 of 2): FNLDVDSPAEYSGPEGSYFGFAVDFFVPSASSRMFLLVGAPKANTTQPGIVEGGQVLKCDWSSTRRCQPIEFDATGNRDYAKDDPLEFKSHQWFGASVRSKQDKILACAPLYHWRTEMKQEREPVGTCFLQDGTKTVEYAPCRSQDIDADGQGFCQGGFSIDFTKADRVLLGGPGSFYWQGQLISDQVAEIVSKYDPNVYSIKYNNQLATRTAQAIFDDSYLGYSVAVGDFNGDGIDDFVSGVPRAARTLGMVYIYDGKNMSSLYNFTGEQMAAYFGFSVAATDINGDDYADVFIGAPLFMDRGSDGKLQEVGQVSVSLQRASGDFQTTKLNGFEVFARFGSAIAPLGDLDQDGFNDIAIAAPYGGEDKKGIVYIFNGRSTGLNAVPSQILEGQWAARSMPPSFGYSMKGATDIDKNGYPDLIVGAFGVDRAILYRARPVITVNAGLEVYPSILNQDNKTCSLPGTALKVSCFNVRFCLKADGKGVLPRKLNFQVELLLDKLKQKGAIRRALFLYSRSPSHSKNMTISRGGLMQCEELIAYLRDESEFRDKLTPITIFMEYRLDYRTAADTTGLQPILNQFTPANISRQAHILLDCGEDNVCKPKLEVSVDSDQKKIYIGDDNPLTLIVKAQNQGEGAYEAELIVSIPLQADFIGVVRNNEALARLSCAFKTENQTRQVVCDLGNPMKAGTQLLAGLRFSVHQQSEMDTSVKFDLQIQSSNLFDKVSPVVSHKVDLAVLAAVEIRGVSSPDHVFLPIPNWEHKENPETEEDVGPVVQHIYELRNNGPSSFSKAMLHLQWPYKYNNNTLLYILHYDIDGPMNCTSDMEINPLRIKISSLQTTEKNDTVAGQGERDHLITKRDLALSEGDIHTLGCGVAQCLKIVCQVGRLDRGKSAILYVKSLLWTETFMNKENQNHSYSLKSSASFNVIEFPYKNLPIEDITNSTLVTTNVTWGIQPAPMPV

Binder	Kd
B1	3.2 nM
B2	1.42 nM
B3	2.09 nM
B4	21.1 nM

molecular target: integrin αβ8 (αvβ8), form in the assay not stated (UniProt P06756 31-992); assay: as above
Sequence (chain, as listed by the source, chain 1 of 2): as the sequence (chain, as listed by the source, chain 1 of 2) above
Sequence (P06756 31-992, chain 2 of 2): as the sequence (P06756 31-992, chain 2 of 2) above

Binder	Kd
B5	14 nM
B6	3.52 nM
B7	3.35 nM
B8	1.83 nM
B9	3.85 nM
B10	1.79 nM
B11	> 250 nM
B12	> 100 nM
B13	14.8 nM
B14	9.34 nM
B15	3.04 nM
